In publication PMC11165011, “Proteinase 3 depletion attenuates leukemia by promoting myeloid differentiation” (Cell Death and Differentiation, 2024):

B1: PRTN3 recombinant protein (enzyme, human, UniProt P24158 28-248, looked up)
chain: IVGGHEAQPHSRPYMASLQMRGNPGSHFCGGTLIHPSFVLTAAHCLRDIPQRLVNVVLGAHNVRTQEPTQQHFSVAQVFLNNYDAENKLNDVLLIQLSSPANLSASVATVQLPQQDQPVPHGTQCLAMGWGRVGAHDPPAQVLQELNVTVVTFFCRPHNICTFVPRRKAGICFGDSGGPLICDGIIQGIDSFVIWGCATRLFPDFFTRVALYVDWIRSTLR
notes: Proteinase 3 (PRTN3), human, bought recombinant protein; see the vendor's sheet for HY-P70509; also called hPRTN3; hPR3; source: bought: ACE (HY-P70509)

Columns and labels:
[1] = target: T1, STAT3 recombinant protein (whole STAT3) (human, UniProt P40763 1-770); experiment: SPR; Biacore K8, CM5 chip; 'target proteins' at 20 μg/mL in PBS pH 7.2 immobilised by amine coupling at 25 °C (which partner is not stated); 300 s dissociation; steady-state analysis; settings: both partners purified
T1 construct: STAT3, human, bought recombinant protein with the N-terminal domain; In the cleavage test STAT3 ran as a ~120 kDa monomer, which may mean a carrier tag (surmise); also called recombinant human STAT3; source: bought: one of Abcam (Ab43618), ACRO (ST3-H5149), ACE (HY-P70574)

[2] = target: B1; experiment: as above; settings: both partners purified

Kd [1] [µM] | Kd [2] [µM] | Binder
0.224 | – | B1
– | 6.91 | N-terminal domain of STAT3, recombinant (domain or fragment, Limits of the purchased recombinant N-terminal domain are not given; 1-130 is taken from the paper's own shortest Flag-STAT3 truncation (1-130), which matches the usual N-terminal domain boundary. …) MAQWNQLQQLDTRYLEQLHQLYSDSFPMELRQFLAPWIESQDWAYAASKESHATLVFHNLLGEIDQQYSRFLQESNVLYQHNLRRIKQFLQSRYLEKPMEIARIVARCLWEESRLLQTAATAAQQGGQAN
